Assay: label from the status in PepcDB records

Sequence | protein production
MNSFYSQEELKKIGFLSVGKNVLISKKASIYNPGVISVGNNVRIDDFCILSGKVTIGSYSHIAAYTALYGGEVGIEMYDFANISSRTIVYAAIDDFSGNALMGPTIPNQYKNVKTGKVILKKHVIIGAHSIIFPNVVIGEGVAVGAMSMVKESLDDWYIYVGVPVRKIKALEHHHHHH | not failed
MNSHMLVSSEIDIGLNKSNIERPPGSKKRTKHLPCEVPLAESADRILEPQDYLNFTRFSLGFVETETYDNPRFGGHQTLSERERSYSAVNQTIHCGFVKGTGFDLSEKDRAYMKNCVVSVSSCIFGSSDFLRRPATKKISEFSKRNVCFVMFVDEQTLSKLASEGHVPDKQGFVGLWKTVVVSNLPYNDMRKTGKVPKFLSHRLFPSSRYSIWLDSKMRLTTDPMLIIDFFLWRTKSEFAISNHYDRHCVWDEVLQNKRLNKYNHSAIDEQFMFYRSDGLKKFDPSDPNSPLPSYVPEGSFIVRAHTPMSNLFTCLWFNEVDRFTSRDQLSFAYTYLKLQRLNSDRPLRLNMFKDCERRALTKLFHHRVDSSPPSPPT | not failed
MNSIKTPLLFLLIAFSSIFQSFSAGKPLGYEIKATIKGVKQADTVYLARYYADKRFYQDTAIADAKGFVSFSDTTHLKEGMYFLLLPGQKVFDFILNPSTLSFSIDTTNLIKSAHFKNSPDNTAFYDYQRFFMNQKTKADSINNLMKSAAATQKTVLTKQLSDIDSTMLAYIQNFLKTNPNSLFTAILKTTKDVDVPPAPKKADGSIDSSWQFHYYKKHYFDNVNFSDDRLIRTPVLVNKVDGYFKNLVVQRPDSIIKEIDMIISKCNPKGDLFEYYVREYTYKYETSQVMGMDAVFVHLGKEYYMKGKCFWATPETVKKIKERVDLLDPLLLGKKAPNLYMTDTTGTYRYLYDVQAKYTILFFWDSQCGHCQQETPKLYDWWLKNRAKGIQVYAANIERKDEEWLKFIRSKKIGGWLNVRDSKNHTDFKITYDIYATPVLYVLDKNKVIIAKRIGYENLDDFLVQYEKSLKTK | failed
MNSIQIADETYVAADAARVSAAVADRCSWRRWWPDLRLQVTEDRADKGIRWTVTGALTGTMEIWLEPSMDGVLLHYFLHAEPTGVAAWQLARMNLARMTHHRRVAGKKMAFEVKTVLERSRPIGVSPVT | failed
MNSLINIFNQYSELAIFISLFISVIIALLGIVPSVFVTGANIVFFGPINGFLISLLGEVIGGWISFKVYRKGINKFAGNIEGKYELIDKIVKSEGRNVGILIFEGRLIPFIPSGLVTLAAAMSKVNSFTFIISTFLGKIPSILLEVLASYGVIMASQKNLKLVIGVLSLILFLLTLKKLKDKTNKK | failed
MNSLLFVYGTLRKHEKNHHLLAQSACINEQARTKGSLFAAKEGPTVVFNDEDEGYIYGEVYEADELCIHKLDQFFQGYHKQTVFVETDVGIKIALIYFMNKDGCAGFTKISSGDWKEHQMISKSKNPIYYFAYGSCMDNARFQKAGVDHYFQDPVGRAVLKGYTTRFTLKREDGSRADMLEDGGTTEGVLYRIPYSALSYLYKREGVESLTYRPAFVDVEAGGRHYKDCLTFLVLQKEAEIAPPQHYQIEIERGAELYLSPEFTEKLKRHMNSLPKGLEHHHHHH | not failed
MNSLPRPDIGPFADTPEKRWVGVSFGAAAVGYDGVAALQREVGESLLAGIRHLGPPPARMLDLGAGTGHFSGLLVAAFPTAECLALDIAEGMLRFLRSHRPGADGMGLVVGDAEALPLADESVDLIFSNMAFQWCERLDRAISECCRVLRPGGRLAFSTFGEATLAELRMAWRAVDGYTHVNAFATRRSVEQELRAQGFTKIRLDARTLRRGYPSVLALMKELKALGARNLTRNRPRHLLSRHTLERVSEAYGRLPGMASAVTASFEVLTALVEK | failed
MNSLSVIKPNNAMPMTAEYRQSIRTALKTSLYPGASDTSVDMVLAYCQAADLDPMTKPVHIVPMWIPEKKVDGRVMSSAGMRDVIMPGIELYRTKAHRTGEYAGQDEAVFGDTVCETLGGVQIRYPSWCRIAVYRMVAGERVRFAATVYWLEAYATARKDSPAPNSMWQKRPFGQLEKCAEALALRKAFPEAVGAQPTAEEMDAGRHTIEGETIHVAPIPVNKDIRDISGPYPQEEFEKNFPKWCDLIESGKTTADRIITMLHSKGKGQLSLEQLTAIRACAEDTSAEPVPTDNTPQESNTTDTEENT | not failed
MNSNIYAVIVTYNPELKNLNALITELKEQNCYVVVVDNRTNFTLKDKLADIEKVHLICLGRNEGIAKAQNIGIRYSLEKGAEKIIFFDQDSRIRNEFIKKLSCYMDNENAKIAGPVFIDRDKSHYYPICNIKKNGLREKIHVTEGQTPFKSSVTISSGTMVSKEVFEIVGMMDEELFIDYVDTEWCLRCLNYGILVHIIPDIEMVHAIGDKSVKICGINIPIHSPVRRYYRVRNAFLLLRKNHVPLLLSIREVVFSLIHTTLIIATQKNKIEYMKKHILATLDGIRGITGGGRYNA | failed
MNSNPFVSVVMSVYNGGEFLKDAINSILSQSYKNFEFIIINDGSSDNFSEILELYDDERIKVLNNQENKGLVYSLNRGLLESIGKYIVRMDADDISLPNRIEKQVEFMEREPEVGVCGSYIEIFGDTIKRKVQRFPSNVNVNEAFLLFSTCLAHPSVIIRKSIVDKYKLRYDDRYLHAEDYAIWCQAVKYTKISNIREVLLKYRILESSVTRQANKNFQSRFDVHKSIYKDIFRNKGIDYTEKELYLHFIISDNNRFRNQALTIRPSEINAHLTKILSHYRGASNYKYIAFLVNKRGLSLSRWYSESRGFYFIMYLFKFLYYKIQIKKLEHHHHHH | failed
MNSRMKIKKAYEYMKSFHQHDTTGHDIAHVERVYNNACYIAKRENITDTLVIELSSLLHDTVDSKLTDEILAYDQLKQFLSTLDLSSEISQQVLYIIKHMSYRAGKNNHVKLSIDGEIVRDADRLDAIGAIGIARTFQFSGHFGEPMWTETKLSNEELHTSLVEELDNSAIKHFYEKLFKLKDLMHTPTAKKLAEERHQFMIQYLKQFMSEWNFNKELEHHHHHH | not failed
MNSTLFSQVENHSVHSNFSEKNAQLLAFENDDCHLPLAMIFTLALAYGAVIILGVSGNLALIIIILKQKEMRNVTNILIVNLSFSDLLVAIMCLPFTFVYTLMDHWVFGEAMCKLNPFVQCVSITVSIFSLVLIAVERHQLIINPRGWRPNNRHAYVGIAVIWVLAVASSLPFLIYQVMTDEPFQNVTLDAYKDKYVCFDQFPSDSHRLSYTTLLLVLQYFGPLCFIFICYFKIYIRLKRRNNMMDKMRDNKYRSSETKRINIMLLSIVVAFAVCWLPLTIFNTVFDWNHQIIATCNHNLLFLLCHLTAMISTCVNPIFYGFLNKNFQRDLQFFFNFCDFRSRDDDYETIAMSTMHTDVSKTSLKQASPVAFKKINNNDDNEKI | failed
MNSYDFITALVPIILIIIGLGIIKKPAYYVIPISLIATVAIVIFYKNLGIVNTSLAMLEGALMGIWPIATVIIAAIFTYKMSEDQKDIETIKNILSNVSSDRRIIVLLVAWGFGNFLEGVAGYGTAVAIPVSILIAMGFEPFFACLICLIMNTSSTAYGSVGIPITSLAQATNLDVNIVSSEIAFQLILPTLTIPFVLVILTGGGIKGLKGVFLLTLLSGMSMAISQVFISKTLGPELPAILGSILSMTITIVYARFFGNKETTERQSKNTISLSKGIIACSPYILIVTFIVLVSPLFNKIHEYLKTFQSTISIYPEANPLHFKWIISPGFLIILATTISYSIRGVPMLKQLKIFTLTLKKMALSSFIIICIVAISRLMTHSGMIRDLANGISIITGKFGPLFSPLIGAIGTFLTGSDTVSNVLFGPLQTQMAENIGANPYWLAAANTTGATGGKMISPQNITIATTTAGLIGQEGKLLSKTIIYALYYILATGLLVYLV | failed
MNTDLTLVIMAAGLGSRFGGDKQLASLGPSGEPMLVLSILSAIRSGFQRAVLVIRPELEAELTGILTQFLPANFEYHFCYQSLSDLPQDAKLADLSHRLKPWGTAHALWCARDWVKGPMAVINADDFYGDSAFASLAKGLTARPNDWMMVAYPIELTLSEHGGVNRGLCQVAQGQLRSVAEWLNIQAQDDGFVGEGPNGLAKLPLQSLVSMTCWGFSPSIFNVIKQQLTAFIEQQGQLPKSECYLPAVVQAAIEQGVPVYVDVASEPWLGVTYPQDTVWVKQKLMELLGDKTHLEHHHHHH | failed
MNTHLKQLIEISHLDKEIDSLEPLIREKRKDLDKALNDKEAKNKAILNLEEEKLALKLQVSKNEQTLQDTNTKIASIQKKMSEIKSERELRSLNIEEDIAKERSNQANREIENLQNEIKHKSEKQEDLKKEMLELEKLVQQLESLVENEVKNIKETQQIIFKKKEELVEKTEPKIYSFYERIRRWAKNTSIVTIKKQACGGCFIRLNDKIYTEVLTSGDMITCPYCGRILYAEG | failed
MNTHQNRYSVQSKVSALINCRLFQSFITTVIVLNAISIGLETYAFFKPYQKVFFIVDCLFLTIFVIELSLKLFVQKQHFFKNNWNVFDFVIVAGSLILYNTNFVSVLRIFRVLRVLRTITSVPSLRRIVNALFMAIPTISSVIILMSIIFYVYAVIGTMFFSAIAPEYFGNLQLSLLTLFQTFTLESWASGIFRPIFAESGWSWLYFVSFIVIATFIMINLIVGEIVNNAQKISQEIEDETGELKEDTKEIKELRAEVKELKALLQTYITQNEKKD | failed
MNTLIASLEKVILPFAVKIGKQPHVNAIKNGFIRLMPLTLTGAMFVLINNVFLSFGEGSFFYSLGVRLDASTIETLNSLKSIGGSVYNGTLGIMSLMTPFFISMALAEERKVDPLASALLAVAAFMTVTPFNVGEAYAVGANWLGGANIISGMVIGLAVAEMFAFIVRRNWVISLPDSVPASVSRSFSALIPGFIILSIMGLVAFALAHWGTNFHQIIMDGISAPLAKMGSVVGWVYVLFSSLLWFFGVHGSMALAALDSGIMTPFALENVELYNKYGSVEAAVAAGKEFHMWAKPFVDSYIYLGGTGSTLGLIIAIFIASRREDYRQVAKLATPSGIFQINEPILFGLPVIMNPVMFIPFILVQPVLTIITSLAYYSGLIPPITNIAPWTMPVGLGAFFNTNGSIMAMLLSLFNLAVATVIYLPFVAISNKAQSQIDAATESEEDIAKALKF | failed
MNTLYTLFATCPRGLETVLSQELGSLGCTDVQAFDGGVSCRGGLEQAYAANLHSRTAGRILLRLTKGTYRTERDIYKLAKNINWFNWFTLQQTFKVKIEAKRANVKSLQFAGLTVKDAVCDAFRDIYDARPSVDKAAPDVRIHAFLDERNVEIFIDTSGEALFKRGYRLDTGEAPLRENLAAGLLLSAGYDGTQPFQDPFCGSGTIAIEAAWIAAGRAPGMMRRFGFEKLQNFDKTLWADLRRRAEAQTRPVRAPIAGSDNGRRIVQTALDNAHNAGADDIVSFSVAGAQSVRPNGENGIMVSNPPYGVRLEEVRALQALYPQLGTWLKKHYAGWRVGMFTGDREMPKFMRLLPKRKIPLYNGNIDCRLFLIDMVQGSNR | not failed
MNTPLRRVAIAVMVMVVALLANATYVQVIKADNLRADPRNSRVLLDEYSRQRGQISAAGQVLAASVPTDDRYKYLRTYPPNPAAPSSPLANAPVTGFYSMQYGSTGLERSEDPVLNGSDNRLFGRRFFDLVSGRDPRGGNVVTTINPVMQQVAYDQLTAKGYTGSVVAIEPSTGRILTMVSTPSYDPNSLASHDGTETTQAWEALNADPEKPLINRAVSQTYPPGSTFKVVVTAAALAAGTTPDTQLTAAPQITLPGTSTTLENYNGSTCGGAPTASLREAFARSCNTAFVELGVKTGTDAVSDQSSALGIGGQMPGVPFPVADSTIGSIPDDAALGQSSIGQRDVALTPLQNAMIAATVANGGVRMQPQLVSELQGPDLSNLATTNPVSEGQAMSSQVAATLTDLMIGSENNTSGEGKIPGVQIASKTGTAEHGTDPRNTPPHAWYIGFAPAQNPTVAIAVIVEDGGDRALAATGGSVAAPIGRAVIAAGLQGG | failed
MNTTPFPALSAETLLAVNTVGQWLAQNDFSGEQPYSSDCVVLAGNAVIPTIDAACRIAKAQGVPLLISGGIGHSTPFLYAVIARHPRYHTIRTSGRAEAAILADIANQFWHIPAEKIWLEDRSTNCGENARFSCALIRQAKENINTAIVVQDPTMQRRTIAAFRRVTNDDTDAPRWLSFPGFVPVLRHLNDGTRFANVEEGIWTVERYLSLIAGELPRLRDDETGYGPRGKDFIIHVDIPRDIENAWQVLQADTTLRSALGQRALRLEHHHHHH | not failed
